According to patent WO2014041119A1 (dated 2014):

Target: T1, EGFR on the surface of A431 cells (human, UniProt P00533 25-1210)
T1 construct: whole, on cells; also called cell surface EGFR
Assay: flow cytometry on A431 cells with cetuximab or rituximab pre-incubation

B1: ONC-scFvEGFR (onconase (ONC) fused to a single-chain antibody fragment (scFv) against EGFR) (scFv)
chain: QDWLTFQKKHITNTRDVDCDNIMSTNLFHCKDKNTFIYSRPEPVKAICKGIIASKNVLTTSEFYLSDCNVTSRPCKYKLKKSTNKFCVTCENQAPVHFVGVGSCGGGGSGGGGSGGGGSEVQLVESGGGLVQPGGSLRLSCAASGFSLTNYGVHWVRQAPGKGLEWLGVIWSGGNTDYNTPFTSRFTISRDNSKNTLYLQMNSLRAEDTAVYYCARALTYYDYEFAYWGQGTTVTVSSGGGGSGGGGSGGGGSDIQLTQSPSFLSASVGDRVTITCRASQSIGTNIHWYQQKPGKAPKLLIKYASESISGVPSRFSGSGSGTEFTLTISSLQPEDFATYYCQQNNNWPTTFGAGTKLEIKRAAAEQKLISEEDLNGAAHHHHHH
notes: also called immunoRNase; fusion polypeptide
**Q.** Does B1 bind?
**A.** Result: binds
